doi:10.1101/2025.10.01.679806 (bioRxiv, 2025)

Target: the molecule itself
Assay: methyl-TROSY NMR

B1: Bpa 45-153 (domain or fragment)
chain: AKVMRIGTMIKQLLEEVRAAPLDEASRNRLRDIHATSIRELEDGLAPELREELDRLTLPFNEDAVPSDAELRIAQAQLVGWLEGLFHGIQTALFAQQMAARAQLQQMRQ
Question: Which “stoichiometry N” value does the source give for B1 here?
Answer: The value was 4.
